The values that follow come from PMC4837482, “The complex binding mode of the peptide hormone H2 relaxin to its receptor RXFP1” (Nature Communications, 2016).

Numbering of substitutions follows the chain as printed.

Test in all cases: cAMP activity assay (pCRE β-galactosidase reporter), transfected HEK293T cells
What all share (assay type): cell-based

One assay concerns the target T1, RXFP1 G41A (Homo sapiens, UniProt Q9HBX9, G63A).
T1 construct: transiently transfected human embryonic kidney (HEK) 293T cells expressing full-length RXFP1 and mutants; expressed in transfected cells; host or cells: HEK293T
T1 sequence (Q9HBX9 23-757 G63A limits assumed): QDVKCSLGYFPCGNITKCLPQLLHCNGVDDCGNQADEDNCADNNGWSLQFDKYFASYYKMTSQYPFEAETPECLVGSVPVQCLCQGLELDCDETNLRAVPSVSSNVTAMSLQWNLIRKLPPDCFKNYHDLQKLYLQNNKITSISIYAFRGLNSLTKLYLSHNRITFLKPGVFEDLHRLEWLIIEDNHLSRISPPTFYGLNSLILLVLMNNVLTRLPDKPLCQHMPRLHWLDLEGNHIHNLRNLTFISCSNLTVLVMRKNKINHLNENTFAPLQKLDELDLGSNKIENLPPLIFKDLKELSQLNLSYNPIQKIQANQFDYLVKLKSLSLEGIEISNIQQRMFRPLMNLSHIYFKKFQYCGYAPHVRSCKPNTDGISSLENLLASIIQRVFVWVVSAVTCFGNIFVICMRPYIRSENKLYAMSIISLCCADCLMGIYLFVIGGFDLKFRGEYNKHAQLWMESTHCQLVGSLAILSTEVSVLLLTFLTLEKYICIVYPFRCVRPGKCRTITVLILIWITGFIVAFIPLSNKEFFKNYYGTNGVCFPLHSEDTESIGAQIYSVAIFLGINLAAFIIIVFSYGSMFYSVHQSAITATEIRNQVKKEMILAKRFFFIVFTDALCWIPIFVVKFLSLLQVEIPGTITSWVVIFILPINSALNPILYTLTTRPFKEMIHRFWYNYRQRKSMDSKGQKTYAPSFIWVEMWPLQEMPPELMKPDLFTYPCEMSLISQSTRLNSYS
The conditions noted are these: construct G41A, ±s.e.m. On the procedure:
(§1) Media was aspirated and plates stored frozen at −80 °C overnight. […] H2 relaxin dilutions were prepared in minimal media containing 1% DMSO. Positive and negative control stimulations were achieved by incubation with 5 μM Forskolin and minimal media/1% DMSO, respectively. Plates were developed by 10 min of incubation in 25 μl of lysis buffer 1 (100 mM Na2HPO4, pH 8.0, 0.2 mM MgSO4 0.01 mM MnCl2); a further 10 min of incubation in 100 μl of buffer 2 (100 mM Na2HPO4, pH 8.0, 2 mM MgSO4, 0.1 mM MnCl2, 0.5% Triton X-100, 40 mM β-mercaptoethanol); then to each well 25 μl of the β-galactosidase substrate, chlorophenol red-β-D-galactopyranoside (Roche) was added. All incubation steps were conducted with orbital shaking. Color-change was monitored and readings were taken on a Benchmark Plus Microplate Reader (Bio-Rad) at 570 nm. A minimum of three separate experiments were performed, each of them in triplicate, and data were pooled and presented as percentages of the maximum response induced by 5 μM Forskolin±s.e.m.

The next assay concerns the target T2, RXFP1 A68^Δ (Homo sapiens, UniProt Q9HBX9, DEL90-90).
T2 construct: transiently transfected human embryonic kidney (HEK) 293T cells expressing full-length RXFP1 and mutants; expressed in transfected cells; host or cells: HEK293T
T2 sequence (Q9HBX9 with tags, fused parts or gaps DEL90-90 limits assumed): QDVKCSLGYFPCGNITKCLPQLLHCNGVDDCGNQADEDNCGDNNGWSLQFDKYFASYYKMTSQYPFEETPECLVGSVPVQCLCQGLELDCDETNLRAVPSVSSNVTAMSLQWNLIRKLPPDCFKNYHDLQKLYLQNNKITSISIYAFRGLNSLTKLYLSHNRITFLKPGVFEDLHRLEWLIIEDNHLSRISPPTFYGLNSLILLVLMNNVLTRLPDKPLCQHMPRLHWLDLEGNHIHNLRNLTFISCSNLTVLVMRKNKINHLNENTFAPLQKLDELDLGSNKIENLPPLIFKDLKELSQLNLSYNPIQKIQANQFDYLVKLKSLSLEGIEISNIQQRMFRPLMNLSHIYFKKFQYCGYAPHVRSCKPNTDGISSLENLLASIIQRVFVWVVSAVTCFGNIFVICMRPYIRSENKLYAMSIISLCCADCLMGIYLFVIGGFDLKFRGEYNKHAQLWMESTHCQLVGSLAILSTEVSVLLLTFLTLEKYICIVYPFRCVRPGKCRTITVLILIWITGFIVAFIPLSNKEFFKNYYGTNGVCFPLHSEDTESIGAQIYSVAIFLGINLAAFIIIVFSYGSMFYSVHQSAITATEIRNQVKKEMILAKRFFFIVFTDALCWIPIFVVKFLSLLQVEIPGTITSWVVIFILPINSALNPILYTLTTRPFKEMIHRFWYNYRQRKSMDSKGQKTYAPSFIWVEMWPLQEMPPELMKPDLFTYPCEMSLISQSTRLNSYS
Conditions: construct A68^Δ, ±s.e.m. Here is the method:
as §1

The target of another assay is T3, RXFP1 D51A (Homo sapiens, UniProt Q9HBX9, D51A/D73A).
T3 construct: cells expressing full-length RXFP1 and mutants; expressed in transfected cells; host or cells: HEK293T
T3 sequence (Q9HBX9 23-757 D51A/D73A limits assumed): T1 sequence (Q9HBX9 23-757 G63A limits assumed) with D29A, A41G, D51A
Conditions: construct D51A, ±s.e.m. Here is the method: as §1

The mark [1] stands for this setting: percentage of maximum response to 5 μM Forskolin.

Regarding “H2 relaxin: two-chain 6-kDa peptide hormone structurally related to insulin; recombinant human gene-2 H2 relaxin provided by Corthera”, the entries for the “H2 relaxin pEC50” value with RXFP1 G41A (cAMP reporter), in the assay with RXFP1 A68^Δ (cAMP reporter) and with RXFP1 D51A (cAMP reporter) were 11.13±0.1 (3), 11.18±0.02 (3) and 11.01±0.56 (3), respectively. Moreover, the “H2 relaxin Emax” value with RXFP1 G41A (setting [1]) is recorded as 104.7±1.65 (3) %; with RXFP1 A68^Δ (setting [1]), 93.78±3.19 (3) %; with RXFP1 D51A (setting [1]), 96.5±4.0 (3) %.
